Laboratory results: patent EP0599274A1

Molecular target: HER4/p180erbB4 (human prototype HER4 polypeptide) (human)
Assay: cell-based or functional assay

With “recombinant rat neu differentiation factor (NDF) (from UniProt P43322 14-241) (ligand)” the increase in tyrosine phosphorylation of HER4 after 15 minutes incubation was 2.4 to 4 fold.
